Source: patent US20180273604A1 (ALBERT EINSTEIN COLLEGE OF MEDICINE, published 2018)

B2: ICOS-L, human, expressed on HEK 293 cells (ligand, UniProt O75144 19-302, looked up)
chain: DTQEKEVRAMVGSDVELSCACPEGSRFDLNDVYVYWQTSESKTVVTYHIPQNSSLENVDSRYRNRALMSPAGMLRGDFSLRLFNVTPQDEQKFHCLVLSQSLGFQEVLSVEVTLHVAANFSVPVVSAPHSPSQDELTFTCTSINGYPRPNVYWINKTDNSLLDQALQNDTVFLNMRGLYDVVSVLRIARTPSVNIGCCIENVLLQQNLTVGSQTGNDIGERDKITENPVSTGEKNAATWSILAVLCLLVVVAVAIGWVCRDRCLQHSYAGAWAVSPETELTGHV
notes: whole, on cells; Expressed as GFP or mCherry fusion; Library form: ectodomain on the mouse PD-L1 transmembrane segment with GFP; also called Human ICOS-L

Experiments:
mouse TNFR-1B = biological target: T1, mouse TNFR-1B (mouse, UniProt P25119 23-258); assay: mouse constructs tested; assay not described (data not shown)
T1 construct: also called mouse ortholog of TNFR-1B
T1 sequence (looked up): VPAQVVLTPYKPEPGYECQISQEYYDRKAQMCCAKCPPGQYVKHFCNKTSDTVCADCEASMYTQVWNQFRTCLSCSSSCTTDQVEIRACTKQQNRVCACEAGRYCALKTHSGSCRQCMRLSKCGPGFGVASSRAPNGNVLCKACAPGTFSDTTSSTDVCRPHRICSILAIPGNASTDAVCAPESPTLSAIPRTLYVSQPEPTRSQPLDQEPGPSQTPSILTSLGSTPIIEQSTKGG

[1] = biological target: T2, tumor necrosis factor receptor 1B (TNFR-1B), human, expressed on HEK 293 cells (human, UniProt P20333 23-461); assay: listed as newly discovered in this disclosure (cell-cell FACS screens)
T2 construct: also called TNFR-1B-mCHERRY; Human TNFR-1B; not shown: C-terminal fluorescent protein (mCherry as query, GFP as library or panel member)
T2 sequence: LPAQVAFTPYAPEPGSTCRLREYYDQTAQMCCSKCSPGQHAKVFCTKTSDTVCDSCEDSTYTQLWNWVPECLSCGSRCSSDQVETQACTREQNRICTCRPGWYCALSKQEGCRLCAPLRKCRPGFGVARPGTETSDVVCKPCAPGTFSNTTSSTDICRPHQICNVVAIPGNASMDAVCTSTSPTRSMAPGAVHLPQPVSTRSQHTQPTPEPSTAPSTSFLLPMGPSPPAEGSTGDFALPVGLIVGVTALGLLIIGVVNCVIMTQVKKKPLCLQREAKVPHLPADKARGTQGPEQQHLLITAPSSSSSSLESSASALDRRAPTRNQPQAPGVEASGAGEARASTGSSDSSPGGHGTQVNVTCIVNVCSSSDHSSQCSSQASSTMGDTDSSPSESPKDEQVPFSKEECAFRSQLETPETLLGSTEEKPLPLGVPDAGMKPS

TNFR-1B mutant D58A = biological target: T3, TNFR-1B mutant D58A (human, UniProt P20333 23-461); assay: cell-cell FACS, mutant-mCherry cells vs ligand-GFP cells
T3 construct: Point mutant expressed as mCherry fusion in HEK 293 cells; not shown: C-terminal mCherry fusion
T3 sequence: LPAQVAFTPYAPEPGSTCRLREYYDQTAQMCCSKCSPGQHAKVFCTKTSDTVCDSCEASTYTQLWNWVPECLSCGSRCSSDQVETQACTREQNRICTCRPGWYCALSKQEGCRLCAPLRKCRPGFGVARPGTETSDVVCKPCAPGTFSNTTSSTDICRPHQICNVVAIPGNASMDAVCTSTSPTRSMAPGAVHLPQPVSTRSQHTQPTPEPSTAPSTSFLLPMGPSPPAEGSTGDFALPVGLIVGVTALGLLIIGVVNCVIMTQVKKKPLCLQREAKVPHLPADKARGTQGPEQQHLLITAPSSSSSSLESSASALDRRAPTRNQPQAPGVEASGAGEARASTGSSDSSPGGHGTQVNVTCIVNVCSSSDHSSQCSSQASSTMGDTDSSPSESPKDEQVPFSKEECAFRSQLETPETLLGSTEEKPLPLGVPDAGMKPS

[2] = biological target: T4, TNFα, cell-surface displayed on HEK 293 cells (Homo sapiens (Human), UniProt P01375 1-233, Expressed as a GFP fusion on HEK 293 cells. GFP is left out of the chain. The native protein is a homotrimer.); assay: as above
T4 construct: also called TNF-alpha; cell surface expressed TNFα

[3] = biological target: B2; assay: as above
[4] = biological target: T5, NGFR, human, expressed on cells (human, UniProt P08138 29-427); assay: cell-cell FACS screen, NGFR query cells vs GFP library cells
T5 construct: whole, on cells
T5 sequence (looked up): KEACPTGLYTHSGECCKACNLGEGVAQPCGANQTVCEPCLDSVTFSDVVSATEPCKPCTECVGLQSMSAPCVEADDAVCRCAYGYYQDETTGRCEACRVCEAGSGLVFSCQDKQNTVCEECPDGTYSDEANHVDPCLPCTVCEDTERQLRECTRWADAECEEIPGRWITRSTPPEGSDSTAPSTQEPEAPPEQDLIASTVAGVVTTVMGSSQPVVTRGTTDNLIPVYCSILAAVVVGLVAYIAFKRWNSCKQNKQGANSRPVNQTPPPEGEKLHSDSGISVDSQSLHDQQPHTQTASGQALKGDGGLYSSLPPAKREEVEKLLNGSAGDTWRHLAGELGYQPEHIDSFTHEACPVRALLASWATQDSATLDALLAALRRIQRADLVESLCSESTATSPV

[5] = biological target: T2, tumor necrosis factor receptor 1B …; assay: soluble ICOS-L Fc on transfected cells, flow cytometry

T4 sequence (P01375 whole entry, form in doubt, the tested form may be a part): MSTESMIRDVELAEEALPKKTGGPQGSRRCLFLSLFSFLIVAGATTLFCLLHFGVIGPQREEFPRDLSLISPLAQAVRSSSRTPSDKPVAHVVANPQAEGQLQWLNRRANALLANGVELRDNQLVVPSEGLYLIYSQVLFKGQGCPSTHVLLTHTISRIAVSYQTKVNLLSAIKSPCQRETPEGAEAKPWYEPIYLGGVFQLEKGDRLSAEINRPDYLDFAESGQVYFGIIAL

B1: mouse ICOS-L (ligand, UniProt Q9JHJ8 47-277, looked up)
chain: ETEVGAMVGSNVVLSCIDPHRRHFNLSGLYVYWQIENPEVSVTYYLPYKSPGINVDSSYKNRGHLSLDSMKQGNFSLYLKNVTPQDTQEFTCRVFMNTATELVKILEEVVRLRVAANFSTPVISTSDSSNPGQERTYTCMSKNGYPEPNLYWINTTDNSLIDTALQNNTVYLNKLGLYDVISTLRLPWTSRGDVLCCVENVALHQNITSISQAESFTGNNTKNPQETHNNE
notes: also called mouse ortholog of ICOS-L
**Q.** Does B1 bind (mouse TNFR-1B)?
**A.** Result: no binding

**Q.** Does B2 bind [1]?
**A.** Result: binds

**Q.** Does B2 bind (TNFR-1B mutant D58A)?
**A.** Result: binds

B3: TNFR-1B mutant N171D (receptor)
chain: LPAQVAFTPYAPEPGSTCRLREYYDQTAQMCCSKCSPGQHAKVFCTKTSDTVCDSCEDSTYTQLWNWVPECLSCGSRCSSDQVETQACTREQNRICTCRPGWYCALSKQEGCRLCAPLRKCRPGFGVARPGTETSDVVCKPCAPGTFSNTTSSTDICRPHQICNVVAIPGDASMDAVCTSTSPTRSMAPGAVHLPQPVSTRSQHTQPTPEPSTAPSTSFLLPMGPSPPAEGSTGDFALPVGLIVGVTALGLLIIGVVNCVIMTQVKKKPLCLQREAKVPHLPADKARGTQGPEQQHLLITAPSSSSSSLESSASALDRRAPTRNQPQAPGVEASGAGEARASTGSSDSSPGGHGTQVNVTCIVNVCSSSDHSSQCSSQASSTMGDTDSSPSESPKDEQVPFSKEECAFRSQLETPETLLGSTEEKPLPLGVPDAGMKPS
notes: Point mutant expressed as mCherry fusion in HEK 293 cells; not shown: C-terminal mCherry fusion
**Q.** How did the “binding as percent of wild-type” value [2] turn out when B3 was run?
**A.** Its value is ~50 % of wild-type.

**Q.** What about the “binding as percent of wild-type” value [3] of the same binder?
**A.** The value was ~50 % of wild-type.

B4: MadCAM-1, human, expressed on HEK 293 cells (ligand, UniProt Q13477 19-382, looked up)
chain: QSLQVKPLQVEPPEPVVAVALGASRQLTCRLACADRGASVQWRGLDTSLGAVQSDTGRSVLTVRNASLSAAGTRVCVGSCGGRTFQHTVQLLVYAFPDQLTVSPAALVPGDPEVACTAHKVTPVDPNALSFSLLVGGQELEGAQALGPEVQEEEEEPQGDEDVLFRVTERWRLPPLGTPVPPALYCQATMRLPGLELSHRQAIPVLHSPTSPEPPDTTSPESPDTTSPESPDTTSQEPPDTTSPEPPDKTSPEPAPQQGSTHTPRSPGSTRTRRPEISQAGPTQGEVIPTGSSKPAGDQLPAALWTSSAVLGLLLLALPTYHLWKRCRHLAEDDTHPPASLRLLPQVSAWAGLRGTGQVGISPS
notes: whole, on cells; GFP or mCherry fusion; library form has the ectodomain on the mouse PD-L1 transmembrane segment
**Q.** Does B4 bind [1]?
**A.** Result: binds

**Q.** Does B4 bind (TNFR-1B mutant D58A)?
**A.** Result: binds

B5: TNFR-1B mutant T48A (receptor)
chain: LPAQVAFTPYAPEPGSTCRLREYYDQTAQMCCSKCSPGQHAKVFCTKASDTVCDSCEDSTYTQLWNWVPECLSCGSRCSSDQVETQACTREQNRICTCRPGWYCALSKQEGCRLCAPLRKCRPGFGVARPGTETSDVVCKPCAPGTFSNTTSSTDICRPHQICNVVAIPGNASMDAVCTSTSPTRSMAPGAVHLPQPVSTRSQHTQPTPEPSTAPSTSFLLPMGPSPPAEGSTGDFALPVGLIVGVTALGLLIIGVVNCVIMTQVKKKPLCLQREAKVPHLPADKARGTQGPEQQHLLITAPSSSSSSLESSASALDRRAPTRNQPQAPGVEASGAGEARASTGSSDSSPGGHGTQVNVTCIVNVCSSSDHSSQCSSQASSTMGDTDSSPSESPKDEQVPFSKEECAFRSQLETPETLLGSTEEKPLPLGVPDAGMKPS
notes: as for B3
**Q.** How did the “binding as percent of wild-type” value [2] turn out when B5 was run?
**A.** The value was ~50 % of wild-type.

**Q.** And the “binding as percent of wild-type” value [3]?
**A.** The value was ~50 % of wild-type.

B6: TNFR-1B mutant K42D (receptor)
chain: LPAQVAFTPYAPEPGSTCRLREYYDQTAQMCCSKCSPGQHADVFCTKTSDTVCDSCEDSTYTQLWNWVPECLSCGSRCSSDQVETQACTREQNRICTCRPGWYCALSKQEGCRLCAPLRKCRPGFGVARPGTETSDVVCKPCAPGTFSNTTSSTDICRPHQICNVVAIPGNASMDAVCTSTSPTRSMAPGAVHLPQPVSTRSQHTQPTPEPSTAPSTSFLLPMGPSPPAEGSTGDFALPVGLIVGVTALGLLIIGVVNCVIMTQVKKKPLCLQREAKVPHLPADKARGTQGPEQQHLLITAPSSSSSSLESSASALDRRAPTRNQPQAPGVEASGAGEARASTGSSDSSPGGHGTQVNVTCIVNVCSSSDHSSQCSSQASSTMGDTDSSPSESPKDEQVPFSKEECAFRSQLETPETLLGSTEEKPLPLGVPDAGMKPS
notes: as for B3
**Q.** Which “binding as percent of wild-type” value [2] does the source give for B6 here?
**A.** Its value is ~50 % of wild-type.

**Q.** What about the “binding as percent of wild-type” value [3] of the same binder?
**A.** The value was ~50 % of wild-type.

B7: B7-1, human, expressed on cells (ligand, UniProt P33681 35-288, looked up)
chain: VIHVTKEVKEVATLSCGHNVSVEELAQTRIYWQKEKKMVLTMMSGDMNIWPEYKNRTIFDITNNLSIVILALRPSDEGTYECVVLKYEKDAFKREHLAEVTLSVKADFPTPSISDFEIPTSNIRRIICSTSGGFPEPHLSWLENGEELNAINTTVSQDPETELYAVSSKLDFNMTTNHSFMCLIKYGHLRVNQTFNWNTTKQEHFPDNLLPSWAITLISVNGIFVICCLTYCFAPRCRERRRNERLRRESVRPV
notes: whole, on cells
**Q.** Does B7 bind [4]?
**A.** Result: binds

B8: ICOS-L Fc-fusion protein (soluble, purified) (Fc fusion, human, UniProt O75144 19-256, looked up, not shown: a dimerising Fc or GST)
chain: DTQEKEVRAMVGSDVELSCACPEGSRFDLNDVYVYWQTSESKTVVTYHIPQNSSLENVDSRYRNRALMSPAGMLRGDFSLRLFNVTPQDEQKFHCLVLSQSLGFQEVLSVEVTLHVAANFSVPVVSAPHSPSQDELTFTCTSINGYPRPNVYWINKTDNSLLDQALQNDTVFLNMRGLYDVVSVLRIARTPSVNIGCCIENVLLQQNLTVGSQTGNDIGERDKITENPVSTGEKNAAT
notes: Expressed in HEK 293 cells, purified by Ni2+-NTA and gel filtration; Used soluble or on protein A microbeads; also called ICOS-L Fc (IgG2a); ICOS-L mIgG2a
**Q.** Does B8 bind [5]?
**A.** Result: binds
